Consider 26 sequences from PMC12207370, “Macrocyclic Peptide Probes for Immunomodulatory Protein CD59: Potent Modulators of Bacterial Toxin Activity and Antibody‐Dependent Cytotoxicity” (Angewandte Chemie (International Ed. in English), 2025).

The test deals with T1, biotinylated CD59 (Homo sapiens, UniProt P13987).
T1 construct: Recombinant soluble human CD59 with an additional C-terminal cysteine residue
T1 sequence (P13987 26-102 limits assumed): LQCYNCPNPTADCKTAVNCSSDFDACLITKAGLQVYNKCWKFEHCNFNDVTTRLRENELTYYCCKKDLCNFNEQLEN
The test is described as follows: mRNA-display cyclic peptide screen against CD59-biotin, NGS abundance after 6th selection round. The settings on record: for Percentage Seq I: counts normalised by total counts of sample Seq I; for Percentage Seq I / Percentage Seq II: percentage of the pool; for Percentage Seq I / Percentage Seq II / Percentage Average / Percentage of the pool, averaged across the two sequencing samples / Percentage of the pool, Seq I / Percentage of the pool, Seq II: sheet R6; for Percentage Seq II: counts normalised by total counts of sample Seq II; for Percentage Average: percentage of the pool averaged across the two sequencing samples; for Counts Seq I / Counts Seq II: raw NGS counts of peptide sequence; for Counts Seq I: sequencing sample Seq I; for Counts Seq I / Counts Seq II / Counts (raw counts for peptide sequence), Seq I / Counts (raw counts for peptide sequence), Seq II: sheet R6 (6th selection round); for Counts Seq II: sequencing sample Seq II; for Counts (raw counts for peptide sequence), Seq I: NGS sample Seq I; for Counts (raw counts for peptide sequence), Seq II: NGS sample Seq II; for Percentage of the pool, averaged across the two sequencing samples: average of Seq I and Seq II; for Percentage of the pool, Seq I: counts normalised by total counts of NGS sample Seq I; for Percentage of the pool, Seq II: counts normalised by total counts of NGS sample Seq II. From the text: To discover novel non‐protein CD59 ligands, we screened a library of 10^12 cyclic peptides against CD59 using mRNA‐display (Figure 2a).^[ [23], [24], [25], [26], [27], [28], [29] ^] Briefly, an mRNA library was designed in which the start codon was reprogrammed from Met to N‐chloroacetyl‐D‐Tyr (ClAc‐D‐Tyr), followed by 10–12 randomly encoded natural amino acids, a Cys residue, a (GlySer)3 linker, and a stop codon. […] The total library diversity was 1.51 × 10^13 molecules, comprising 5.02 × 10^12 molecules of each macrocycle size, covering a subset of the maximum theoretical diversity of this library design. Following in vitro translation, ClAc‐D‐Tyr spontaneously reacts with either the C‐terminal Cys or a Cys in the random region, yielding macrocyclic thioether peptides. Hits from the library were identified through iterative enrichment and amplification against biotinylated CD59, then immobilized on streptavidin beads. Fifteen hit sequences (CP‐01 to CP‐15), enriched with abundance >1% relative to the total pool of recovered binders after the 6th round of selection, were synthesized by solid phase peptide synthesis (SPPS), without the (Gly‐Ser)3 linker.
Figure 2 Discovery of macrocyclic peptide ligands with nanomolar CD59 affinity using mRNA display. a) The selection process. PCR = polymerase chain reaction, SPPS = solid phase peptide synthesis. b) Table showing details of the peptides with nanomolar affinity for CD59 as well as the binding affinity of the lead inhibitor of CD59, rILYd4. K D values are presented as the average of three technical replicates ± SEM. Structures of all peptides and SPR sensograms are presented in Figures S1 and S2. *indicates the presented sequences are the variable regions of these cyclic peptides; each is flanked by an N‐terminal Ac‐D‐Tyr cyclized to a C‐terminal Cys. R6 abundance (%) is defined as (the given number of NGS reads for a given sequence/the total number of reads of unique sequences observed in NGS)*100 following the 6th selection round. c) Representative sensogram of the interaction between CP‐06 with immobilized CD59 by SPR analysis. Inset showing the equilibrium binding curve of CP‐06 to CD‐59. Below in the box are the association and dissociation rate constants of CP‐06. Concentrations are plotted in descending order from 800‐3.1 nM in line with their position on the legend. […] (nM)'; the box with Kon/Koff has no label of its own / ILYd4: the label may be cut off at the left edge (possibly 'rILYd4') / CP-02, KD: 15.3 ± 0.2, small print, 3 or 8 uncertain / CP-03, KD: 23.4 ± 0.7, small print / CP-06, KD: 11.3 ± 0.0, small print, 3 or 8 uncertain / CP-13, KD: 10.8 ± 0.7, small print, 8 or 6 uncertain / ILYd4, KD: 48.3 ± 1.1, small print, 8 and 3 uncertain
The mRNA-display cyclic peptide screen was performed against CD59-biotin by T.E.M: DNA templates for transcription were generated by PCR in a similar manner to that previously described.^2 RNA oligonucleotides were transcribed from the DNA templates using T7 RNA polymerase and purified by phenol/chloroform extraction followed by ethanol precipitation. Oligonucleotide concentrations were determined spectroscopically by absorbance at 260 nm. In the first selection round a 1:1:1 molar ratio of NNK10/NNK11/NNK12 was used. The procedure for selection rounds 2-6 is described below; round 1 was conducted at twice the scale.
RNA encoding for the peptide library ligated to a puromycin-modified oligonucleotide was […] (final [RNA] = 2.5 µM) using a customised PURE express kit (lacking release factor 1 and methionine, supplemented with […] initiator tRNA acylated with N-chloroacetyl-d-tyrosine prepared as previously described)^3 in a final volume of 5.6 µL for 1 hour at 37 °C.
This mixture was incubated at 42 °C for 1 hour before being diluted to 500 µL with PBS (10 mM Na-PO4 pH 7.4, 2.7 mM KCl, 137 mM NaCl) and 0.5 µL taken for subsequent use in qPCR. […]

Consider CLDKWGRLWT, for which the “Percentage Seq I” value is recorded as 0.042%, the “Percentage Seq II” value stood at 0.042%, the “Percentage Average” value came to 0.042% and the “Counts Seq I” value stood at 182. Moreover, the “Counts Seq II” value is given as 18.
Turning to TISGGRDYTRG, the “Percentage Seq I” value is recorded as 0.948%, the “Percentage Seq II” value came to 0.935%, the “Percentage Average” value is given as 0.941% and the “Counts Seq I” value is on record as 4146. Besides, the “Counts Seq II” value turned out to be 403.
With CFVSRTQIGSV, the “Counts (raw counts for peptide sequence), Seq I” value stood at 85; the “Counts (raw counts for peptide sequence), Seq II” value stood at 2; the “Percentage of the pool, averaged across the two sequencing samples” value is 0.012%; the “Percentage of the pool, Seq I” value is 0.019%. Moreover, the “Percentage of the pool, Seq II” value was 0.00464%.
IATGSKLYAKG: the “Percentage Seq I” value was 0.033%, the “Percentage Seq II” value was 0.046%, the “Percentage Average” value is 0.040% and the “Counts Seq I” value amounted to 145. Further, the “Counts Seq II” value is recorded as 20.
The corresponding values for CFALRLSQTSV are 0.018%, 0.042%, 0.030%, 78 and 18.
Consider STRRDRLGLTC, for which the “Counts (raw counts for peptide sequence), Seq I” value worked out at 57; the “Counts (raw counts for peptide sequence), Seq II” value is 9; the “Percentage of the pool, averaged across the two sequencing samples” value is reported as 0.017%; the “Percentage of the pool, Seq I” value was determined as 0.013%. The “Percentage of the pool, Seq II” value is listed as 0.021%.
In the case of CPRYVSRGFA, the “Counts (raw counts for peptide sequence), Seq I” value is 72; the “Counts (raw counts for peptide sequence), Seq II” value is recorded as 5; the “Percentage of the pool, averaged across the two sequencing samples” value is 0.014%; the “Percentage of the pool, Seq I” value came out at 0.016%. Further, the “Percentage of the pool, Seq II” value came to 0.012%.
On to CIRGTPTTVWG, for which the “Percentage Seq I” value worked out at 0.387%, the “Percentage Seq II” value came to 0.362%, the “Percentage Average” value is 0.374% and the “Counts Seq I” value was 1692. Moreover, the “Counts Seq II” value is reported as 156.
As for CYGGRAFIYAWS, the “Percentage Seq I” value came to 0.042%, the “Percentage Seq II” value came out at 0.044%, the “Percentage Average” value is recorded as 0.043% and the “Counts Seq I” value turned out to be 185. For the same sequence, the “Counts Seq II” value stood at 19.
For FVRGNSTSVLF, in that order: 0.020%, 0.019%, 0.019%, 88 and 8.
On to AKGNGHFAYG, for which the “Percentage Seq I” value was determined as 0.144%, the “Percentage Seq II” value is given as 0.114%, the “Percentage Average” value is 0.129% and the “Counts Seq I” value came to 629. In addition, the “Counts Seq II” value is 49.
The corresponding values for WRDRFDQCVP are 0.038%, 0.053%, 0.046%, 167 and 23.
For CFAGRLTTDAV, the “Percentage Seq I” value turned out to be 0.044%, the “Percentage Seq II” value was determined as 0.044%, the “Percentage Average” value is 0.044% and the “Counts Seq I” value was 193. Besides, the “Counts Seq II” value is on record as 19.
For the sequence SRNGIQFTCS, the “Percentage Seq I” value was found to be 0.036%, the “Percentage Seq II” value stood at 0.037%, the “Percentage Average” value is on record as 0.037% and the “Counts Seq I” value was 158. Also, the “Counts Seq II” value is on record as 16.
For CFSHRNPTDSI, the “Counts (raw counts for peptide sequence), Seq I” value came out at 32; the “Counts (raw counts for peptide sequence), Seq II” value came out at 6; the “Percentage of the pool, averaged across the two sequencing samples” value was 0.011%; the “Percentage of the pool, Seq I” value worked out at 0.007%. Further, the “Percentage of the pool, Seq II” value was 0.014%.
Regarding CYGGRTFIYAWL, the “Counts (raw counts for peptide sequence), Seq I” value is 35; the “Counts (raw counts for peptide sequence), Seq II” value is given as 8; the “Percentage of the pool, averaged across the two sequencing samples” value was found to be 0.013%; the “Percentage of the pool, Seq I” value is recorded as 0.008%. The “Percentage of the pool, Seq II” value is recorded as 0.019%.
Consider SWTWGNRSSVSG, for which the “Counts (raw counts for peptide sequence), Seq I” value is listed as 73; the “Counts (raw counts for peptide sequence), Seq II” value was found to be 2; the “Percentage of the pool, averaged across the two sequencing samples” value stood at 0.011%; the “Percentage of the pool, Seq I” value turned out to be 0.017%. Further, the “Percentage of the pool, Seq II” value was found to be 0.00464%.
As for HVRGDAWTVLG, the “Percentage Seq I” value worked out at 0.243%, the “Percentage Seq II” value amounted to 0.216%, the “Percentage Average” value came to 0.230% and the “Counts Seq I” value was 1065. The “Counts Seq II” value was found to be 93.
With CFSKRIAPGAQ, the “Percentage Seq I” value stood at 0.020%, the “Percentage Seq II” value turned out to be 0.019%, the “Percentage Average” value was found to be 0.019% and the “Counts Seq I” value was 88. Moreover, the “Counts Seq II” value was 8.
YVRGDLYSVLG: the “Counts (raw counts for peptide sequence), Seq I” value was determined as 40; the “Counts (raw counts for peptide sequence), Seq II” value came to 5; the “Percentage of the pool, averaged across the two sequencing samples” value was determined as 0.010%; the “Percentage of the pool, Seq I” value stood at 0.009%. For the same sequence, the “Percentage of the pool, Seq II” value is on record as 0.012%.
For SAWGNRQTQYY, the “Percentage Seq I” value is listed as 1.151%, the “Percentage Seq II” value stood at 1.160%, the “Percentage Average” value was 1.156% and the “Counts Seq I” value stood at 5037. For the same sequence, the “Counts Seq II” value came out at 500.
VARGNSNTVWG: the “Percentage Seq I” value was determined as 0.019%, the “Percentage Seq II” value is listed as 0.021%, the “Percentage Average” value was found to be 0.020% and the “Counts Seq I” value is on record as 85. Further, the “Counts Seq II” value is recorded as 9.
As for FVTGNRDHTRG, the “Percentage Seq I” value was determined as 7.311%, the “Percentage Seq II” value turned out to be 7.094%, the “Percentage Average” value came out at 7.203% and the “Counts Seq I” value is reported as 31986. In addition, the “Counts Seq II” value is listed as 3057.
Consider SWTWGNRSTVRG, for which the “Percentage Seq I” value was 0.011%, the “Percentage Seq II” value is 0.026%, the “Percentage Average” value came out at 0.018% and the “Counts Seq I” value is listed as 49. Besides, the “Counts Seq II” value is 11.
For GRLNECHVIWS, the “Percentage Seq I” value is reported as 0.015%, the “Percentage Seq II” value was determined as 0.037%, the “Percentage Average” value is 0.026% and the “Counts Seq I” value is 65. Moreover, the “Counts Seq II” value was 16.
In the case of IIRGNRLTKYE, the “Percentage Seq I” value stood at 0.020%, the “Percentage Seq II” value came to 0.026%, the “Percentage Average” value was 0.023% and the “Counts Seq I” value was 86. Further, the “Counts Seq II” value came to 11.
